Residue numbers refer to the chain shown, from its start.
T1: mouse FcγRII extracellular domain with C-terminal His tag (mouse, UniProt P08101 30-210)
T1 construct: Made on the basis of NCBI NP-034317.1; also called mFcγRII; mFcgRII
T1 sequence: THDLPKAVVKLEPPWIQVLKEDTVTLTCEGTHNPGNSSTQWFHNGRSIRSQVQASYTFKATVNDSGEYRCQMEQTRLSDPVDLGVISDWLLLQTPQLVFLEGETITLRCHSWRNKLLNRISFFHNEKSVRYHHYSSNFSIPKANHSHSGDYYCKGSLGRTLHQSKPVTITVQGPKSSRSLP

T2: mouse FcγRIII extracellular domain with C-terminal His tag (mouse, UniProt P08508 31-215)
T2 construct: Made on the basis of NCBI NP-034318.2; also called mFcγRIII; mFcgRIII
T2 chain: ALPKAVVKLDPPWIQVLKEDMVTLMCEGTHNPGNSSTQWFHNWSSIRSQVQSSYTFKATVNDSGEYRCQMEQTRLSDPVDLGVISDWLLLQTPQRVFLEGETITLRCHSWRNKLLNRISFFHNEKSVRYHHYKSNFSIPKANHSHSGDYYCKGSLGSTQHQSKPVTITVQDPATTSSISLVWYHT

T3: mouse FcγRII (mouse, UniProt P08101 30-210)
T3 construct: also called mFcγRII; mFcgRII
T3 sequence: T1 sequence

T4: mouse FcγRIII (mouse, UniProt P08508 31-215)
T4 construct: also called mFcγRIII; mFcgRIII
T4 chain: T2 chain

B1: H237-MB514/MRAL-k0 (antibody, mouse IgG1, kappa)
heavy: QVQLQESGPGLVKPSETLSLTCAVSGHSISHDHAWSWVRQPPGEGLEWIGFISYSGITNYNPSLQGRVTISRDNSKNTLYLQMNSLRAEDTAVYYCARSLARTTAMDYWGEGTLVTVSSAKTTPPSVYPLAPGSAAQTNSMVTLGCLVKGYFPEPVTVTWNSGSLSSGVHTFPAVLQSDLYTLSSSVTVPSSTWPSETVTCNVAHPASSTKVDKKIVPRDCGCKPCICIPAEVEMVFIFPPKPKDVLTITLTPKVTCVVVDISKDDPEVQFSWFVDDVEVHTAQTQPREEQFNSTFRSVSELPIMHQDWLNGKEFKCRVNSAAFPAPIEKTISKTKGRPKAPQVYTIPPPKEQMAKDKVSLTCMITDFFPEDITVEWQWNGQPAENYKNTQPIMDTDGSYFVYSKLNVQKSNWEAGNTFTCSVLHEGLHNHHTEKSLSHSPGK
light: not shown
notes: copies: 2 + 2
B2: H237-MB489/MRAL-k0 (antibody, mouse IgG1, kappa)
heavy: B1 heavy with I229Q, A231N, M235S
light: not shown
notes: copies: 2 + 2
B3: H237-MB472/MRAL-k0 (antibody, mouse IgG1, kappa)
heavy: B1 heavy with I229E, P230V, A231Y, M235E
light: not shown
notes: copies: 2 + 2
B4: H237-MB481/MRAL-k0 (antibody, mouse IgG1, kappa)
heavy: B1 heavy with I229E, P230A, A231Y, M235S
light: not shown
notes: copies: 2 + 2
B5: H237-MB485/MRAL-k0 (antibody, mouse IgG1, kappa)
heavy: B1 heavy with I229E, P230V, A231Y, M235S
light: not shown
notes: copies: 2 + 2
B6: H237-MB522/MRAL-k0 (antibody, mouse IgG1, kappa)
heavy: B1 heavy with I229E, M235W
light: not shown
notes: copies: 2 + 2
B7: H237-MB508/MRAL-k0 (antibody, mouse IgG1, kappa)
heavy: B1 heavy with I229E, P230A, A231Y
light: not shown
notes: copies: 2 + 2
B8: H237-MB482/MRAL-k0 (antibody, mouse IgG1, kappa)
heavy: B1 heavy with I229E, P230D, A231Y, M235S
light: not shown
notes: copies: 2 + 2
B9: H237-MB484/MRAL-k0 (antibody, mouse IgG1, kappa)
heavy: B1 heavy with I229E, P230T, A231Y, M235S
light: not shown
notes: copies: 2 + 2
B10: H237-MB525/MRAL-k0 (antibody, mouse IgG1, kappa)
heavy: B1 heavy with I229Q, A231N, M235W
light: not shown
notes: copies: 2 + 2
B11: H237-MB511/MRAL-k0 (antibody, mouse IgG1, kappa)
heavy: B1 heavy with I229E, P230T, A231Y
light: not shown
notes: copies: 2 + 2
B12: H237-MB516/MRAL-k0 (antibody, mouse IgG1, kappa)
heavy: B1 heavy with I229Q, A231N
light: not shown
notes: copies: 2 + 2
B13: H237-MB517/MRAL-k0 (antibody, mouse IgG1, kappa)
heavy: B1 heavy with I229E, P230A, A231Y, M235W
light: not shown
notes: copies: 2 + 2
B14: H237-MB483/MRAL-k0 (antibody, mouse IgG1, kappa)
heavy: B1 heavy with I229E, P230N, A231Y, M235S
light: not shown
notes: copies: 2 + 2
B15: H237-MB518/MRAL-k0 (antibody, mouse IgG1, kappa)
heavy: B1 heavy with I229E, P230D, A231Y, M235W
light: not shown
notes: copies: 2 + 2
B16: H237-MB523/MRAL-k0 (antibody, mouse IgG1, kappa)
heavy: B1 heavy with M235W
light: not shown
notes: copies: 2 + 2
B17: H237-MB470/MRAL-k0 (antibody, mouse IgG1, kappa)
heavy: B1 heavy with I229E, P230N, A231Y, M235E
light: not shown
notes: copies: 2 + 2
B18: H237-MB488/MRAL-k0 (antibody, mouse IgG1, kappa)
heavy: B1 heavy with I229E, A231N, M235S
light: not shown
notes: copies: 2 + 2
B19: H237-MB521/MRAL-k0 (antibody, mouse IgG1, kappa)
heavy: B1 heavy with I229E, P230V, A231Y, M235W
light: not shown
notes: copies: 2 + 2
B20: H237-MB487/MRAL-k0 (antibody, mouse IgG1, kappa)
heavy: B1 heavy with M235S
light: not shown
notes: copies: 2 + 2
B21: H237-MB510/MRAL-k0 (antibody, mouse IgG1, kappa)
heavy: B1 heavy with I229E, P230N, A231Y
light: not shown
notes: copies: 2 + 2
B22: H237-MB509/MRAL-k0 (antibody, mouse IgG1, kappa)
heavy: B1 heavy with I229E, P230D, A231Y
light: not shown
notes: copies: 2 + 2
B23: H237-MB471/MRAL-k0 (antibody, mouse IgG1, kappa)
heavy: B1 heavy with I229E, P230T, A231Y, M235E
light: not shown
notes: copies: 2 + 2
B24: H237-MB512/MRAL-k0 (antibody, mouse IgG1, kappa)
heavy: B1 heavy with I229E, P230V, A231Y
light: not shown
notes: copies: 2 + 2
B25: H237-MB520/MRAL-k0 (antibody)
heavy: B1 heavy with I229E, P230T, A231Y, M235W
light: not shown
notes: copies: 2 + 2
B26: MB002 (antibody, mouse IgG1, kappa)
heavy: B1 heavy with I229D, P230V, A231P, E234S, M235S
light: not shown
notes: copies: 2 + 2
B27: MB013 (antibody, mouse IgG1, kappa)
heavy: B1 heavy with I229Q, P230V, A231P, E234S, M235S
light: not shown
notes: copies: 2 + 2
B28: MB003 (antibody, mouse IgG1, kappa)
heavy: B1 heavy with I229E, P230V, A231P, E234S, M235S
light: not shown
notes: copies: 2 + 2
B29: MB019 (antibody, mouse IgG1, kappa)
heavy: B1 heavy with I229T, P230A, A231P, E234S, M235S
light: not shown
notes: copies: 2 + 2
B30: MB021 (antibody, mouse IgG1, kappa)
heavy: B1 heavy with I229T, P230E, A231P, E234S, M235S
light: not shown
notes: copies: 2 + 2
B31: MB020 (antibody, mouse IgG1, kappa)
heavy: B1 heavy with I229T, P230D, A231P, E234S, M235S
light: not shown
notes: copies: 2 + 2
B32: MB016 (antibody, mouse IgG1, kappa)
heavy: B1 heavy with I229V, P230V, A231P, E234S, M235S
light: not shown
notes: copies: 2 + 2

target: T1, mouse FcγRII extracellular domain with …; experiment: SPR Biacore T200
Description: (§1) Each altered antibody was analyzed for its interaction with each Fcγ receptor prepared above using Biacore T100 (GE Healthcare Japan Corp.), Biacore T200 (GE Healthcare Japan Corp.), Biacore A100, or Biacore 4000. The running buffer used was HBS-EP+ (GE Healthcare Japan Corp.). The assay temperature was set to 25° C. The sensor chips used were chips prepared by immobilizing Protein L (ACTIGEN or BioVision) onto Series S Sensor Chip CM5 (GE Healthcare Japan Corp.) or Series S Sensor Chip CM4 (GE Healthcare Japan Corp.) by the amine coupling method.
(§2) In order to calculate the KD value of each altered antibody for FcγR, kinetic analysis was conducted according to the following method: first, the antibody of interest was captured onto any of these chips and allowed to interact with mFcγR diluted with a running buffer. For the obtained sensorgram, the assay results were globally fit into the 1:1 Langmuir binding model using Biacore Evaluation Software to calculate an association rate constant ka (L/mol/s) and a dissociation rate constant kd (1/s). From these values, the dissociation constant KD (mol/L) was calculated.

Row | Binder | relative mFcγRII-binding activity (mIgG1 = 1)
1 | B1 | 4.5
2 | B2 | 6.9
3 | B3 | 39.4
4 | B4 | 8.5
5 | B5 | 5
6 | B6 | 1.5
7 | B7 | 5.5
8 | B8 | 14.1
9 | B9 | 14.9
10 | B10 | 2.8
11 | B11 | 8.3
12 | B12 | 38.6
13 | B13 | 1.2
14 | B14 | 9.4
15 | B15 | 1.2
16 | B16 | 0.5
17 | B17 | 63.8
18 | B18 | 28.7
19 | B19 | 1.6
20 | B20 | 6.8
21 | B21 | 6.5
22 | B22 | 10.7
23 | B23 | 91.4
24 | B24 | 3.5
25 | B25 | 1.8

Target: T2, mouse FcγRIII extracellular domain with …
Experiment: SPR Biacore T200
Description: as §1, §2

Row | Binder | relative mFcγRIII-binding activity (mIgG1 = 1)
26 | B1 | 0.2
27 | B2 | 1.1
28 | B3 | 2.5
29 | B4 | 0.6
30 | B5 | 0.5
31 | B6 | 0.1
32 | B7 | 0.4
33 | B8 | 0.7
34 | B9 | 1.1
35 | B10 | 0.3
36 | B11 | 0.6
37 | B12 | 1.6
38 | B13 | 0.4
39 | B14 | 0.9
40 | B15 | 0.4
41 | B16 | 0.1
42 | B17 | 4.9
43 | B18 | 1.8
44 | B19 | 0.7
45 | B20 | 0.5
46 | B21 | 0.6
47 | B22 | 0.6
48 | B23 | 4.8
49 | B24 | 0.3
50 | B25 | 1.3

target: T3, mouse FcγRII; experiment: SPR Biacore 4000, KD ratio
Description: as §1, §2

Row | Binder | relative mFcγRII-binding activity (mIgG1 = 1) [fold]
51 | B26 | 2.72
52 | B27 | 1.2
53 | B28 | 5.06
54 | B29 | 2.7
55 | B30 | 8.52
56 | B31 | 7.97
57 | B32 | 1.15

Target: T4, mouse FcγRIII
Experiment: SPR Biacore 4000, KD ratio
Description: as §1, §2

Row | Binder | relative mFcγRIII-binding activity (mIgG1 = 1) [fold]
58 | B26 | 1.47
59 | B27 | 1.07
60 | B28 | 1.51
61 | B29 | 1.44
62 | B30 | 3.58
63 | B31 | 2.84
64 | B32 | 1

From patent publication US20150203577A1 (Chugai, published 2015)
